Assay [1] deals with T1, CD19 on CD19+ cells (Raji cells; NALM-6 tumor cells) (UniProt P15391 20-556, limits assumed).
T1 construct: whole, on cells; Endogenous CD19 on tumor cell lines; also called CD19+ Raji cells
T1 sequence (looked up): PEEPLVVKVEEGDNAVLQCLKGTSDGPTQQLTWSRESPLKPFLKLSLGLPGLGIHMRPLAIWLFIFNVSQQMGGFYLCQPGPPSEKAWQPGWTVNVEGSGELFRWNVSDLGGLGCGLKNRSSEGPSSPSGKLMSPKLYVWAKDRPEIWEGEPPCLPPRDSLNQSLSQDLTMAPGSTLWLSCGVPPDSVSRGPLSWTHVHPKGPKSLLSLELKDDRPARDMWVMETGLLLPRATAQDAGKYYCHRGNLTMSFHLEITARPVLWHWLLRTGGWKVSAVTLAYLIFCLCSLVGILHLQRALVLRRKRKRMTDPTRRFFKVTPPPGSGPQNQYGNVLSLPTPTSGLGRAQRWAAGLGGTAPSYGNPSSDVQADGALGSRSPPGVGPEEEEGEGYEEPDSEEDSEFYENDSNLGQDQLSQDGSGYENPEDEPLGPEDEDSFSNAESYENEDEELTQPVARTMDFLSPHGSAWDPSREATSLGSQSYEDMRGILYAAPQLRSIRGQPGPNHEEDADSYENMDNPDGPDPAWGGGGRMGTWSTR
The assay can be described thus: flow cytometry, binder incubated with CD19+ Raji cells. On the technique in general: In flow cytometry, cells or beads pass a laser one at a time.

Assay [2] deals with T2, recombinant CD19 (UniProt P15391 20-291, limits assumed).
T2 construct: also called Cluster of Differentiation 19; B-lymphocyte antigen CD19
T2 sequence (looked up): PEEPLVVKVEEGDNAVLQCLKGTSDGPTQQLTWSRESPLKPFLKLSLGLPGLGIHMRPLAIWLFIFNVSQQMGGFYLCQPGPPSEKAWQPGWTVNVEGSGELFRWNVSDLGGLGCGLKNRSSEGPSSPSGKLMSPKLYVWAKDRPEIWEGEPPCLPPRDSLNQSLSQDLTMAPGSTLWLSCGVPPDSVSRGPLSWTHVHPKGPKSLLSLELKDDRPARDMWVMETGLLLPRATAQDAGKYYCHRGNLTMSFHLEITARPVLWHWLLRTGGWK
The assay can be described thus: ELISA on recombinant CD19, OD at 405 nm. On the technique in general: In an ELISA, binding on a coated surface is turned into a signal by an enzyme label.

For assay [3], the target named is T2, recombinant CD19. The assay can be described thus: ELISA on recombinant CD19, OD at 405 nm against antibody concentration.
The target of assay [4] is T2, recombinant CD19. Described as above. This is another data set of the same source.
Assay [5] addresses T1, CD19 on CD19+ cells (Raji cells; NALM-6 …). The assay can be described thus: cell-based or functional assay.
The target in assay [6] is T2, recombinant CD19. Put plainly: ELISA on recombinant CD19, OD at 405 nm against antibody concentration. The source holds these as a separate data set.

Like-named read-outs stand apart in the source and are kept apart here.

B1: CD19 Binder 2 (scFv, V domains shown)
VH: EVHLVESGGGLVQPGGSLRLSCAASGFTFSDYYMSWIRQAPGKGLEWVSYISSSGSTTYYADSVKGRFTISRDNAKNSLYLQMNSLRAEDTAVYYCARVEGWSLLDYWGQGTLVTVSS
VL: QSVLTQPPSVSAAPGQKVTMSCSGSSSNIGNNYVSWYQQLPGTAPKLLIYDNNKRPSGIPDRFSGSKSGTSATLGITGLQTGDEADYYCGTWDSSLGAVVFGGGTKVTVL
B1: the figures for the EC50 (in assay [1]; in the assay with recombinant CD19 [2]) were 0.073 µg/mL and 0.27 µg/mL, respectively. Moreover, the “EC50 (read off the curve)” value in the assay with recombinant CD19 [3] is around 0.3 µg/mL.

B2: CD19 Binder 1 (scFv, V domains shown)
VH: EVQLVESGGGLIQPGGSLRLSCAASGFTVSSNYMSWVRQAPGKGLEWVSVIYSGGSTYYADSVKGRFTISRDNSKNTLYLQMNSLRAEDTAVYYCARDGGLDTLYGMDVWGQGTTVTVSS
VL: QSVVTQPPSVSGAPGQRVTISCTGSSSNIGAGYDVHWYQQLPGTAPKLLIYGNSNRPSGVPDRFSGSKSGTSASLAITGLQAEDEADYYCQSYDSSLSGSYVFGTGTKVTVL
For B2, the “EC50 (read off the curve)” value with recombinant CD19 [4] is around 0.1 µg/mL. Also, the EC50 is 0.041 µg/mL in assay [1] and 0.099 µg/mL with recombinant CD19 [2].

B3: CAR 400 (VH-VL) CD19 chimeric antigen receptor (receptor)
chain: EVQLVQSGAEVKKPGESLKISCKGSGYSFTSYWIGWVRQMPGKGLEWMGIIYPGDSDTRYSPSFQGQVTISADKSISTAYLQWSSLKASDTAMYYCARLPFVGATTGGFDYWGQGTLVTVSSGGGGSGGGGSGGGGSQSVVTQPASVSGSPGQSITISCTGTSSDVGGYNYVSWYQQHPGKAPKLVIYEVSNRPSGVSNRFSGSKSGNTASLTISGLQAEDEADYYCSSYTSSSTLVFGGGTKLTVLTTTPAPRPPTPAPTIASQPLSLRPEACRPAAGGAVHTRGLDFACDIYIWAPLAGTCGVLLLSLVITLYCKRGRKKLLYIFKQPFMRPVQTTQEEDGCSCRFPEEEEGGCELRVKFSRSADAPAYQQGQNQLYNELNLGRREEYDVLDKRRGRDPEMGGKPRRKNPQEGLYNELQKDKMAEAYSEIGMKGERRRGKGHDGLYQGLSTATKDTYDALHMQALPPR
For the molecule B3, the “NALM-6 survival percentage after 24-hour co-culture with hypoimmune CAR T cells, E:T ratio of 1:32 (luciferase read-out)” value in assay [5] was below 20%.

B4: CD19 Binder 3 (scFv, V domains shown)
VH: EVQLVQSGAEVKKPGESLKISCKGSGYSFTSYWIGWVRQMPGKGLEWMGIIYPGDSDTRYSPSFQGQVTISADKSISTAYLQWSSLKASDTAMYYCARLPFVGATTGGFDYWGQGTLVTVSS
VL: QSVVTQPASVSGSPGQSITISCTGTSSDVGGYNYVSWYQQHPGKAPKLVIYEVSNRPSGVSNRFSGSKSGNTASLTISGLQAEDEADYYCSSYTSSSTLVFGGGTKLTVL
For B4, the “EC50 (read off the curve)” value with recombinant CD19 [6] is around 0.04 µg/mL. The EC50 in assay [1] stood at 1.2 µg/mL; with recombinant CD19 [2] it was 0.044 µg/mL.

For orientation: EC50 means the concentration needed to bring the measured effect to its halfway point. In general, EC50 (read off the curve) refers to the concentration giving half of the maximal effect.

These data come from US20260217822A1 (SANA BIOTECHNOLOGY, published 2026).
